# Reference: US20200339678A1 (RIGEL PHARMACEUTICALS, published 2020)
# Substitutions are numbered along the chain they refer to.
# T1: His-tagged recombinant Mouse TIGIT (mouse, UniProt P86176 29-148, limits assumed)
# T1 construct: not shown: His tag
# T1 sequence (looked up): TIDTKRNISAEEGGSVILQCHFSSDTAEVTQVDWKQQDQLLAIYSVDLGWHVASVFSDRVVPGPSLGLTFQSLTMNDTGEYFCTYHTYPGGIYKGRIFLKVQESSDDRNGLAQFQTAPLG
# B1: Ab11 (Fab, V domains shown)
# VH: EVQLLESGGGLVQPGGSLRLSCAASGFTFSSYGMHWVRQAPGKGLEWVASISSNGGYTSYADSVKGRFTISRDNSKNTLYLQMNSLRAEDTAVYYCARVPYGYWIDYWGQGTLVTVSS
# VL: not shown
# notes: ARV set
# B2: Ab88 (Fab, V domains shown)
# VH: B1 VH with G33S, H35S, N54S, G55A, Y57T, Y103V
# VL: not shown
# notes: ARV set
# B3: Ab167 (Fab, V domains shown)
# VH: B1 VH with G33A, S53G, G55A, Y57S, T58S, Y103V
# VL: not shown
# notes: ARV set
# B4: Ab73 (Fab, V domains shown)
# VH: EVQLLESGGGLVQPGGSLRLSCAASGFTFSSYSMSWVRQAPGKGLEWVASIKGSAGSSSYADSVKGRFTISRDNSKNTLYLQMNSLRAEDTAVYYCARVPYDVWLDYWGQGTLVTVSS
# VL: not shown
# notes: ARV set
# B5: Ab101 (Fab, V domains shown)
# VH: B4 VH with S33A, S50D, K52S, S57T, S58I, D102G, V103Y
# VL: not shown
# notes: ARV set
# B6: Ab51 (Fab, V domains shown)
# VH: B4 VH with S33A, A49S, G53S, S54N, A55S, S58K, V99E, D102S, L105M
# VL: not shown
# notes: ARE set
# B7: Ab120 (Fab, V domains shown)
# VH: B1 VH with G33S, H35N, A49S, S52N, G55A, Y57T, T58I, S59Y, G102D
# VL: not shown
# notes: ARV set
# B8: Ab196 (Fab, V domains shown)
# VH: B4 VH with S35N, A49S, S57T, S58T, V99E, D102S, L105M
# VL: not shown
# notes: ARE set
# B9: Ab36 (Fab, V domains shown)
# VH: B4 VH with S33A, G53S, A55G, G56S, S57Y, S58K, V99E, D102S, V103T
# VL: not shown
# notes: ARE set
# B10: Ab62 (Fab, V domains shown)
# VH: B4 VH with K52S, G53S, S57Y, S59Y, L105I
# VL: not shown
# notes: ARV set
# B11: Ab42 (Fab, V domains shown)
# VH: B1 VH with S50R, S52N, Y57S, T58K, V99G, I105F
# VL: not shown
# notes: ARG set
# B12: Ab111 (Fab, V domains shown)
# VH: B1 VH with G33S, A49S, S50A, S53G, N54S, Y57S, S59Y, I105M
# VL: not shown
# notes: ARV set
# B13: Ab192 (Fab, V domains shown)
# VH: B1 VH with G33A, A49S, N54D, G55T, T58I, S59G, G102D, Y103V
# VL: not shown
# notes: ARV set
# B14: Ab100 (Fab, V domains shown)
# VH: B4 VH with S33A, K52N, S54N, S57T, S58I, V99E, D102S, V103Y
# VL: not shown
# notes: ARE set
# B15: Ab87 (Fab, V domains shown)
# VH: B4 VH with G53S, S57Y, S58I, V103Y, L105I
# VL: not shown
# notes: ARV set
# B16: Ab81 (Fab, V domains shown)
# VH: B4 VH with S35H, S54N, A55T, S59G, L105I
# VL: not shown
# notes: ARV set
# B17: Ab77 (Fab, V domains shown)
# VH: B1 VH with G33S, H35N, S50A, S53G, G55T, S59Y, V99E, G102S, I105M
# VL: not shown
# notes: ARE set
# B18: Ab58 (Fab, V domains shown)
# VH: B4 VH with S33A, A49S, G53S, S59Y, V99E, L105I
# VL: not shown
# notes: ARE set
# B19: Ab118 (Fab, V domains shown)
# VH: B1 VH with G33A, H35S, A49S, S52N, G55A, Y57T, T58S, S59Y, I105M
# VL: not shown
# notes: ARV set
# B20: Ab35 (Fab, V domains shown)
# VH: B1 VH with N54S, G55S, T58K, S59Y, G102S, I105M
# VL: not shown
# notes: ARV set
# B21: Ab65 (Fab, V domains shown)
# VH: B4 VH with S33A, S50Y, G53S, S54N, A55T, S58I, V99E, D102S
# VL: not shown
# notes: ARE set
# B22: Ab26 (Fab, V domains shown)
# VH: B4 VH with S50D, G53S, A55G, G56S, S57T, S58K, V99E, V103Y, L105M
# VL: not shown
# notes: ARE set
# B23: Ab14 (Fab, V domains shown)
# VH: B1 VH with A49S, N54S, Y57T, T58K, S59G, G102D, Y103V, I105M
# VL: not shown
# notes: ARV set
# B24: Ab71 (Fab, V domains shown)
# VH: B1 VH with G33S, N54S, G55A, G56S, Y57T, T58S, S59Y, Y103V
# VL: not shown
# notes: ARV set
# B25: Ab9 (Fab, V domains shown)
# VH: B4 VH with S30D, S35H, S50N, G53S, A55G, S57Y, S58I, V99G, L105M
# VL: not shown
# notes: ARG set
# B26: Ab5 (Fab, V domains shown)
# VH: B4 VH with S31D, S35N, S50L, G53S, S54N, A55S, S58T, V99G, L105M
# VL: not shown
# notes: ARG set
# B27: Ab125 (Fab, V domains shown)
# VH: B4 VH with S35H, S54N, S57T, S58T, S59Y, R98K, L105M
# VL: not shown
# notes: ARV set
# B28: Ab91 (Fab, V domains shown)
# VH: B4 VH with S50A, V99E, D102S, V103Y
# VL: not shown
# notes: ARE set
# B29: Ab57 (Fab, V domains shown)
# VH: B4 VH with S35H, S50Y, G53S, S54D, A55T, G56S, S57T, S58I, S59G, L105I
# VL: not shown
# notes: ARV set
# B30: Ab8 (Fab, V domains shown)
# VH: B1 VH with G33A, H35S, S50D, S52K, S59Y, I105L
# VL: not shown
# notes: ARV set
# B31: Ab44 (Fab, V domains shown)
# VH: B1 VH with G33S, A49S, S50A, N54D, G56S, T58I, G102D, Y103V, I105F
# VL: not shown
# notes: ARV set
# B32: Ab30 (Fab, V domains shown)
# VH: B1 VH with S52K, G55S, Y57N, S59G, G102S, Y103V, I105M
# VL: not shown
# notes: ARV set
# B33: Ab37 (Fab, V domains shown)
# VH: B1 VH with H35N, A49S, S50D, S52N, G55S, Y57S, V99G, Y103V, I105L
# VL: not shown
# notes: ARG set
# B34: Ab123 (Fab, V domains shown)
# VH: B4 VH with K52S, G53S, S57T, V99E, D102G
# VL: not shown
# notes: ARE set
# B35: Ab182 (Fab, V domains shown)
# VH: B1 VH with G33S, G55T, Y57T, S59G
# VL: not shown
# notes: ARV set
# B36: Ab63 (Fab, V domains shown)
# VH: B1 VH with G33S, S53G, N54S, G55T, Y57T, T58S, S59Y
# VL: not shown
# notes: ARV set
# B37: Ab117 (Fab, V domains shown)
# VH: B4 VH with S33A, S50A, G53S, G56S, S57T, S58I, S59Y, V99E, D102S, L105M
# VL: not shown
# notes: ARE set; also called clone Ab117
# B38: Ab33 (Fab, V domains shown)
# VH: B1 VH with A49S, S50D, Y57T, T58I, S59Y, V99G, Y103V, I105L
# VL: not shown
# notes: ARG set
# B39: Ab112 (Fab, V domains shown)
# VH: B1 VH with G33A, H35S, G55T, Y57S, T58I, S59Y, G102S, I105L
# VL: not shown
# notes: ARV set
# B40: Ab25 (Fab, V domains shown)
# VH: B1 VH with S50A, S52K, N54S, G56S, Y57S, I105M
# VL: not shown
# notes: ARV set
# B41: Ab106 (Fab, V domains shown)
# VH: B4 VH with S33A, S35N, G53S, A55T, S57T, S58I, V99E, D102S, L105I
# VL: not shown
# notes: ARE set
# B42: Ab164 (Fab, V domains shown)
# VH: EVQLLESGGGLVQPGGSLRLSCAASGFTFSSYAMSWVRQAPGKGLEWVSYINSNTGSIGYADSVKGRFTISRDNSKNTLYLQMNSLRAEDTAVYYCAREPYGVWMDYWGQGTLVTVSS
# VL: not shown
# notes: ARE set
# B43: Ab119 (Fab, V domains shown)
# VH: B4 VH with G53S, A55T, S57T, S58I, V103Y, L105M
# VL: not shown
# notes: ARV set
# B44: Ab31 (Fab, V domains shown)
# VH: B4 VH with S33T, S35H, S50N, G53S, A55S, G56S, S57T, S58K, S59Y, V99G
# VL: not shown
# notes: ARG set
# B45: Ab45 (Fab, V domains shown)
# VH: B1 VH with H35N, S50R, N54S, G56S, T58I, S59G, V99G, I105L
# VL: not shown
# notes: ARG set
# B46: Ab128 (Fab, V domains shown)
# VH: B4 VH with S35N, G56S, S57Y, S58T, V103Y, L105I
# VL: not shown
# notes: ARV set
# B47: Ab126 (Fab, V domains shown)
# VH: B42 VH with S35H, S49A, Y50S, N52S, N54S, E99V, G102S, V103Y
# VL: not shown
# notes: ARV set
# B48: Ab79 (Fab, V domains shown)
# VH: B1 VH with G33A, S50D, S52K, G55T, S59Y, Y103V
# VL: not shown
# notes: ARV set
# B49: Ab190 (Fab, V domains shown)
# VH: B1 VH with G33A, S50A, S52K, N54S, G55A, T58S, S59Y, Y103V
# VL: not shown
# notes: ARV set
# Target: T1, His-tagged recombinant Mouse TIGIT
# Assay: ELISA, coated His-tagged mouse TIGIT
# Experimental: Binding affinities for antigen binding to anti-TIGIT monoclonal antibodies were determined by ELISA. […] Antibodies to be tested were diluted to 1 μM in PBS buffer containing 1% BSA and diluted 3-fold in a 10-point curve. […] Detection of the secondary antibody was determined using streptavidin-HRP and TMB reagent. All assays were performed at room temperature. Curve-fitting software was used to determine the EC₅₀ for each antibody.
row,EC50,Binder
1,359 nM,B1
2,407 nM,B2
3,61.2 nM,B3
4,266 nM,B4
5,535 nM,B5
6,79.8 nM,B6
7,254 nM,B7
8,19.5 nM,B8
9,470 nM,B9
10,361 nM,B10
11,60.5 nM,B11
12,186 nM,B12
13,295 nM,B13
14,258 nM,B14
15,230 nM,B15
16,307 nM,B16
17,111 nM,B17
18,170 nM,B18
19,110 nM,B19
20,357 nM,B20
21,778 nM,B21
22,47.5 nM,B22
23,169 nM,B23
24,477 nM,B24
25,181 nM,B25

row,EC50,Binder
1,322 nM,B26
2,150 nM,B27
3,242 nM,B28
4,305 nM,B29
5,149 nM,B30
6,128 nM,B31
7,135 nM,B32
8,221 nM,B33
9,578 nM,B34
10,200 nM,B35
11,178 nM,B36
12,10.7 nM,B37
13,85.4 nM,B38
14,213 nM,B39
15,20.9 nM,B40
16,125 nM,B41
17,289 nM,B42
18,279 nM,B43
19,56.9 nM,B44
20,48 nM,B45
21,265 nM,B46
22,64.1 nM,B47
23,86.6 nM,B48
24,23.4 nM,B49
